B1: secreted Neprilysin (lacks transmembrane and cytoplasmic domains; secretion signal at N-terminus) (protein)
chain: YDDGICKSSDCIKSAARLIQNMDATTEPCTDFFKYACGGWLKRNVIPETSSRYGNFDILRDELEVVLKDVLQEPKTEDIVAVQKAKALYRSCINESAIDSRGGEPLLKLLPDIYGWPVATENWEQKYGASWTAEKAIAQLNSKYGKKVLINLFVGTDDKNSVNHVIHIDQPRLGLPSRDYYECTGIYKEACTAYVDFMISVARLIRQEERLPIDENQLALEMNKVMELEKEIANATAKPEDRNDPMLLYNKMTLAQIQNNFSLEINGKPFSWLNFTNEIMSTVNISITNEEDVVVYAPEYLTKLKPILTKYSARDLQNLMSWRFIMDLVSSLSRTYKESRNAFRKALYGTTSETATWRRCANYVNGNMENAVGRLYVEAAFAGESKHVVEDLIAQIREVFIQTLDDLTWMDAETKKRAEEKALAIKERIGYPDDIVSNDNKLNNEYLELNYKEDEYFENIIQNLKFSQSKQLKKLREKVDKDEWISGAAVVNAFYSSGRNQIVFPAGILQPPFFSAQQSNSLNYGGIGMVIGHEITHGFDDNGRNFNKDGDLVDWWTQQSASNFKEQSQCMVYQYGNFSWDLAGGQHLNGINTLGENIADNGGLGQAYRAYQNYIKKNGEEKLLPGLDLNHKQLFFLNFAQVWCGTYRPEYAVNSIKTDVHSPGNFRIIGTLQNSAEFSEAFHCRKNSYMNPEKKCRVW
B2: membrane-bound Neprilysin (full-length Neprilysin; includes transmembrane and cytoplasmic domains) (protein)
chain: GKSESQMDITDINTPKPKKKQRWTPLEISLSVLVLLLTIIAVTMIALYATYDDGICKSSDCIKSAARLIQNMDATTEPCTDFFKYACGGWLKRNVIPETSSRYGNFDILRDELEVVLKDVLQEPKTEDIVAVQKAKALYRSCINESAIDSRGGEPLLKLLPDIYGWPVATENWEQKYGASWTAEKAIAQLNSKYGKKVLINLFVGTDDKNSVNHVIHIDQPRLGLPSRDYYECTGIYKEACTAYVDFMISVARLIRQEERLPIDENQLALEMNKVMELEKEIANATAKPEDRNDPMLLYNKMTLAQIQNNFSLEINGKPFSWLNFTNEIMSTVNISITNEEDVVVYAPEYLTKLKPILTKYSARDLQNLMSWRFIMDLVSSLSRTYKESRNAFRKALYGTTSETATWRRCANYVNGNMENAVGRLYVEAAFAGESKHVVEDLIAQIREVFIQTLDDLTWMDAETKKRAEEKALAIKERIGYPDDIVSNDNKLNNEYLELNYKEDEYFENIIQNLKFSQSKQLKKLREKVDKDEWISGAAVVNAFYSSGRNQIVFPAGILQPPFFSAQQSNSLNYGGIGMVIGHEITHGFDDNGRNFNKDGDLVDWWTQQSASNFKEQSQCMVYQYGNFSWDLAGGQHLNGINTLGENIADNGGLGQAYRAYQNYIKKNGEEKLLPGLDLNHKQLFFLNFAQVWCGTYRPEYAVNSIKTDVHSPGNFRIIGTLQNSAEFSEAFHCRKNSYMNPEKKCRVW

Target: 488-labeled fibrillized-Aβ (1-42) (Anaspec), P05067
Sequence (P05067 whole entry, looked up, tested part not stated): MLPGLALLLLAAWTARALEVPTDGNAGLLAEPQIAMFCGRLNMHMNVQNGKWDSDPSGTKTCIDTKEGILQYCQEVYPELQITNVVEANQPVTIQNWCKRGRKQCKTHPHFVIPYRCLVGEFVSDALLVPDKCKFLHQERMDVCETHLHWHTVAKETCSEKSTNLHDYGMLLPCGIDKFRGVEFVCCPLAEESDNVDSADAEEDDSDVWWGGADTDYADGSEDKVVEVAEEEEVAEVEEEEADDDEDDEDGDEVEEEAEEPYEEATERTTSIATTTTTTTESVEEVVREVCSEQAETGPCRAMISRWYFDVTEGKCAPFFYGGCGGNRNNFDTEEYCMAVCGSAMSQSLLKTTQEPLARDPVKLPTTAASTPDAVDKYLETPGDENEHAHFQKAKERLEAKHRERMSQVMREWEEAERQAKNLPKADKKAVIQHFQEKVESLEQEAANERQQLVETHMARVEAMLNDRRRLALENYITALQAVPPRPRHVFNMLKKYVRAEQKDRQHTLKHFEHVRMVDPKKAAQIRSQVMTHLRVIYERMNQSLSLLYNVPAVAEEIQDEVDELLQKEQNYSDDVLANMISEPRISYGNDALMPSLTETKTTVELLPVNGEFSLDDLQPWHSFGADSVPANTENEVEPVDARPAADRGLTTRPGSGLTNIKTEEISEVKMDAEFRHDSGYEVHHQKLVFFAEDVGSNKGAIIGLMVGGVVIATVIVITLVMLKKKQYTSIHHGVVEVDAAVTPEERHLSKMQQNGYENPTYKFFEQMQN

Row | Protein | Aβ phagocytosis over time (slope of internalized fluorescent Aβ signal)
1 | B1 | Decreasing slope over time, as observed in sNEP and NEP data, indicates increasing degradation of Aβ following internalization
2 | B2 | Decreasing slope over time, as observed in sNEP and NEP data, indicates increasing degradation of Aβ following internalization

Reference: patent US20250290037
